From US20160102137A1 come the findings set out here.

What all share (test): cell-based or functional assay
Experiment [1] deals with HIV-1 envelope (Env) spike trimer of strain 6535.3 (HIV-1 strain 6535.3).
Experiment [2] concerns the target HIV-1 envelope (Env) spike trimer of strain SC4226618 (HIV-1 strain SC4226618).
Experiment [3] deals with HIV-1 envelope (Env) spike trimer of strain CAP210 (HIV-1 strain CAP210).

On to 3BNC60-62 bp-3BNC60 homo-diFab, for which, in experiment [1], the neutralization potency (IC50) compared with 3BNC60 IgG against HIV-1 6535.3 came to 100 fold. For “PG16-60 bp-b12 hetero-diFab (bispecific antibody)”, the neutralization potency compared with the mixture of Fabs plus dsDNA or the more potent of the two Fabs alone in experiment [2] and in experiment [3] was 10 fold each time.
